Data set [1] has as its target plasma purified human antithrombin III (AT-III), as complex with unfractionated heparin. The data set is described as follows: ratio of K0.5 to Catalyst Biosciences WT FIXa, AT-III/UFH inhibition.
Data set [2] has as its target plasma purified human AT-III (antithrombin III). In words: AT-III/UFH inhibition K0.5, ratio to Catalyst Biosciences WT FIXa.
Data set [3] deals with T1, Antithrombin III (plasma purified human AT-III, Molecular Innovations). The data set is described as follows: same assay; ratio to recombinant wild-type FIXa (Catalyst Biosciences WT).
Data set [4] addresses antithrombin III (plasma purified human AT-III), used as the AT-III/unfractionated heparin complex. The data set is described as follows: K0.5 ratio to Catalyst Biosciences WT FIXa, AT-III/UFH inhibition assay.
Data set [5] concerns the target T1, Antithrombin III (plasma purified human …). In words: AT-III/UFH inhibition: FIXa variant incubated with AT-III dilutions in excess unfractionated heparin, residual cleavage of Mesyl-D-CHG-Gly-Arg-AMC; K0.5 = AT-III concentration for 50% inhibition (IC50).

Factor X (FX), P00742, sequence (P00742 whole entry, looked up): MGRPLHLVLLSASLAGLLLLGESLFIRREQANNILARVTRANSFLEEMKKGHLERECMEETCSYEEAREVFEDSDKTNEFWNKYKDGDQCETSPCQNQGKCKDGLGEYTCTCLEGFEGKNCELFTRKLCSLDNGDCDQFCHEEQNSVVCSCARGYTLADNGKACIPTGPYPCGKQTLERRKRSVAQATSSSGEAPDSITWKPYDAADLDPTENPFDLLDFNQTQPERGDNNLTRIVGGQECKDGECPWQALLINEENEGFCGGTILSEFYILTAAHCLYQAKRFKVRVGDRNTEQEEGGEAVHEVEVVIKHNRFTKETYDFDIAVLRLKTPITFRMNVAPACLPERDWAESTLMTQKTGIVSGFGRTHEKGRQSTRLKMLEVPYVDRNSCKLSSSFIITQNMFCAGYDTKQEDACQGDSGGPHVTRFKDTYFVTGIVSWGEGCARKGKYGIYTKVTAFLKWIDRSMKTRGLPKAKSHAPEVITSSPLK
Factor X, P00742, sequence (P00742 whole entry, looked up): as above

B1: FIXa-K247N/N249S/R318Y/R338E/R403E/E410N (protein)
chain 1: YNSGKLEEFVQGNLERECMEEKCSFEEAREVFENTERTTEFWKQYVDGDQCESNPCLNGGSCKDDINSYECWCPFGFEGKNCELDVTCNIKNGRCEQFCKNSADNKVVCSCTEGYRLAENQKSCEPAVPFPCGRVSVSQTSKLTR
chain 2: VVGGEDAKPGQFPWQVVLNGKVDAFCGGSIVNEKWIVTAAHCVETGVKITVVAGEHNIEETEHTEQNRSVIRIIPHHNYNAAINKYNHDIALLELDEPLVLNSYVTPICIADKEYTNIFLKFGSGYVSGWGRVFHKGYSALVLQYLRVPLVDRATCLESTKFTIYNNMFCAGFHEGGRDSCQGDSGGPHVTEVEGTSFLTGIISWGEECAMKGKYGIYTKVSEYVNWIKNKTKLT
For the protein B1, the K0.5-mut/K0.5-wt in data set [1] was found to be 418. Further, in the data set with Factor X, P00742, the “% of WT kcat/KM” value is on record as 341%, the KM worked out at 0.0392 µM and the kcat/KM worked out at 1.5e+08 M⁻¹ s⁻¹. In the data set with Factor X (FX), P00742, the “% of WT kcat/KM” value is 331%, the kcat stood at 5.8 s⁻¹ and the kcat/KM is 1.5e+08 M⁻¹ s⁻¹. For the same protein, the K0.5-mut/K0.5-wt in data set [2] worked out at 418.

B2: FIXa-R318Y/R338E/T412A (protein)
chain 1: YNSGKLEEFVQGNLERECMEEKCSFEEAREVFENTERTTEFWKQYVDGDQCESNPCLNGGSCKDDINSYECWCPFGFEGKNCELDVTCNIKNGRCEQFCKNSADNKVVCSCTEGYRLAENQKSCEPAVPFPCGRVSVSQTSKLTR
chain 2: VVGGEDAKPGQFPWQVVLNGKVDAFCGGSIVNEKWIVTAAHCVETGVKITVVAGEHNIEETEHTEQKRNVIRIIPHHNYNAAINKYNHDIALLELDEPLVLNSYVTPICIADKEYTNIFLKFGSGYVSGWGRVFHKGYSALVLQYLRVPLVDRATCLESTKFTIYNNMFCAGFHEGGRDSCQGDSGGPHVTEVEGTSFLTGIISWGEECAMKGKYGIYTKVSRYVNWIKEKAKLT
On to B2, for which the K0.5-mut/K0.5-wt in data set [1] was determined as 396. Besides, in the data set with Factor X, P00742, the “% of WT kcat/KM” value is 661%, the kcat is 7 s⁻¹ and the kcat/KM came to 3e+08 M⁻¹ s⁻¹. In the data set with Factor X (FX), P00742, the KM worked out at 0.0235 µM and the kcat of FX activation by FIXa (Xase complex with FVIIIa, PC/PS vesicles, Ca2+) turned out to be 7 s⁻¹. Also, in data set [2], the K0.5-mut/K0.5-wt was 396.

B3: FIXa-Y155F/K247N/N249S/R318Y/R338E/E410N (protein)
chain 1: YNSGKLEEFVQGNLERECMEEKCSFEEAREVFENTERTTEFWKQYVDGDQCESNPCLNGGSCKDDINSYECWCPFGFEGKNCELDVTCNIKNGRCEQFCKNSADNKVVCSCTEGYRLAENQKSCEPAVPFPCGRVSVSQTSKLTR
chain 2: VVGGEDAKPGQFPWQVVLNGKVDAFCGGSIVNEKWIVTAAHCVETGVKITVVAGEHNIEETEHTEQNRSVIRIIPHHNYNAAINKYNHDIALLELDEPLVLNSYVTPICIADKEYTNIFLKFGSGYVSGWGRVFHKGYSALVLQYLRVPLVDRATCLESTKFTIYNNMFCAGFHEGGRDSCQGDSGGPHVTEVEGTSFLTGIISWGEECAMKGKYGIYTKVSRYVNWIKNKTKLT
B3: the K0.5-mut/K0.5-wt in data set [1] stood at 200. Besides, in the data set with Factor X, P00742, the “% of WT kcat/KM” value worked out at 674%, the Michaelis constant (KM) came to 0.0153 µM and the catalytic efficiency (kcat/KM) stood at 3e+08 M⁻¹ s⁻¹. In addition, in the data set with Factor X (FX), P00742, the “% of WT kcat/KM” value worked out at 717%, the kcat is 4.3 s⁻¹ and the specificity constant (kcat/KM) came to 3.3e+08 M⁻¹ s⁻¹. The K0.5-mut/K0.5-wt in data set [2] stood at 200.

B4: FIXa-K247N/N249S/R318Y/R338E/E410N (protein)
chain 1: YNSGKLEEFVQGNLERECMEEKCSFEEAREVFENTERTTEFWKQYVDGDQCESNPCLNGGSCKDDINSYECWCPFGFEGKNCELDVTCNIKNGRCEQFCKNSADNKVVCSCTEGYRLAENQKSCEPAVPFPCGRVSVSQTSKLTR
chain 2: VVGGEDAKPGQFPWQVVLNGKVDAFCGGSIVNEKWIVTAAHCVETGVKITVVAGEHNIEETEHTEQNRSVIRIIPHHNYNAAINKYNHDIALLELDEPLVLNSYVTPICIADKEYTNIFLKFGSGYVSGWGRVFHKGYSALVLQYLRVPLVDRATCLESTKFTIYNNMFCAGFHEGGRDSCQGDSGGPHVTEVEGTSFLTGIISWGEECAMKGKYGIYTKVSRYVNWIKNKTKLT
As for B4, in data set [1], the K0.5-mut/K0.5-wt was 78.3. In addition, in the data set with Factor X, P00742, the “% of WT kcat/KM” value amounted to 516%, the Michaelis-Menten constant (KM) was 0.0166 µM and the kcat/KM amounted to 2.3e+08 M⁻¹ s⁻¹. For the same protein, in the data set with Factor X (FX), P00742, the “% of WT kcat/KM” value is recorded as 501%, the turnover number (kcat) was 3.8 s⁻¹ and the kcat/KM was determined as 2.3e+08 M⁻¹ s⁻¹. Also, the K0.5-mut/K0.5-wt in data set [2] was 78.3.

B5: FIXa-D104N/K106S/Y155F/K228N/K247N/N249S (protein)
chain 1: YNSGKLEEFVQGNLERECMEEKCSFEEAREVFENTERTTEFWKQYVDGDQCESNPCLNGGSCKDDINSYECWCPFGFEGKNCELDVTCNIKNGRCEQFCKNSANNSVVCSCTEGYRLAENQKSCEPAVPFPCGRVSVSQTSKLTR
chain 2: VVGGEDAKPGQFPWQVVLNGKVDAFCGGSIVNEKWIVTAAHCVETGVNITVVAGEHNIEETEHTEQNRSVIRIIPHHNYNAAINKYNHDIALLELDEPLVLNSYVTPICIADKEYTNIFLKFGSGYVSGWGRVFHKGRSALVLQYLRVPLVDRATCLRSTKFTIYNNMFCAGFHEGGRDSCQGDSGGPHVTEVEGTSFLTGIISWGEECAMKGKYGIYTKVSRYVNWIKEKTKLT
Turning to B5, in data set [1], the K0.5-mut/K0.5-wt was determined as 1.6. In the data set with Factor X, P00742, the “% of WT kcat/KM” value is on record as 142%, the KM turned out to be 0.0753 µM and the kcat/KM worked out at 6.3e+07 M⁻¹ s⁻¹. Moreover, in the data set with Factor X (FX), P00742, the “% of WT kcat/KM” value worked out at 137%; the kcat turned out to be 4.7 s⁻¹; the kcat of FX activation by FIXa (Xase complex with FVIIIa, PC/PS vesicles, Ca2+) is 4.7 s⁻¹; the kcat/KM was 6.3e+07 M⁻¹ s⁻¹. Besides, the K0.5-mut/K0.5-wt in data set [2] was found to be 1.6.

B6: FIXa-A103N/N105S/K247N/N249S/R318Y/R338E/R403E/E410N (protein)
chain 1: YNSGKLEEFVQGNLERECMEEKCSFEEAREVFENTERTTEFWKQYVDGDQCESNPCLNGGSCKDDINSYECWCPFGFEGKNCELDVTCNIKNGRCEQFCKNSNDSKVVCSCTEGYRLAENQKSCEPAVPFPCGRVSVSQTSKLTR
chain 2: VVGGEDAKPGQFPWQVVLNGKVDAFCGGSIVNEKWIVTAAHCVETGVKITVVAGEHNIEETEHTEQNRSVIRIIPHHNYNAAINKYNHDIALLELDEPLVLNSYVTPICIADKEYTNIFLKFGSGYVSGWGRVFHKGYSALVLQYLRVPLVDRATCLESTKFTIYNNMFCAGFHEGGRDSCQGDSGGPHVTEVEGTSFLTGIISWGEECAMKGKYGIYTKVSEYVNWIKNKTKLT
In the case of B6, the K0.5-mut/K0.5-wt in data set [1] was 129. For the same protein, in the data set with Factor X, P00742, the “% of WT kcat/KM” value is given as 232%, the KM is 0.0397 µM and the kcat/KM is 1e+08 M⁻¹ s⁻¹. Also, in the data set with Factor X (FX), P00742, the “% of WT kcat/KM” value was 324%, the kcat was found to be 4.1 s⁻¹ and the kcat/KM was 1.5e+08 M⁻¹ s⁻¹. In addition, in data set [2], the K0.5-mut/K0.5-wt came to 129.

B7: FIXa-R338E/R403E/E410N (protein)
chain 1: YNSGKLEEFVQGNLERECMEEKCSFEEAREVFENTERTTEFWKQYVDGDQCESNPCLNGGSCKDDINSYECWCPFGFEGKNCELDVTCNIKNGRCEQFCKNSADNKVVCSCTEGYRLAENQKSCEPAVPFPCGRVSVSQTSKLTR
chain 2: VVGGEDAKPGQFPWQVVLNGKVDAFCGGSIVNEKWIVTAAHCVETGVKITVVAGEHNIEETEHTEQKRNVIRIIPHHNYNAAINKYNHDIALLELDEPLVLNSYVTPICIADKEYTNIFLKFGSGYVSGWGRVFHKGRSALVLQYLRVPLVDRATCLESTKFTIYNNMFCAGFHEGGRDSCQGDSGGPHVTEVEGTSFLTGIISWGEECAMKGKYGIYTKVSEYVNWIKNKTKLT
Turning to B7, the K0.5-mut/K0.5-wt in data set [3] amounted to 122; in data set [4], 122 fold. Besides, the KM in the data set with Factor X, P00742 is 0.0455 µM. In data set [5], this protein had a K0.5 of 2350 nM.

B8: FIXa-Y155F/K228N/K247N/N249S (protein)
chain 1: YNSGKLEEFVQGNLERECMEEKCSFEEAREVFENTERTTEFWKQYVDGDQCESNPCLNGGSCKDDINSYECWCPFGFEGKNCELDVTCNIKNGRCEQFCKNSADNKVVCSCTEGYRLAENQKSCEPAVPFPCGRVSVSQTSKLTR
chain 2: VVGGEDAKPGQFPWQVVLNGKVDAFCGGSIVNEKWIVTAAHCVETGVNITVVAGEHNIEETEHTEQNRSVIRIIPHHNYNAAINKYNHDIALLELDEPLVLNSYVTPICIADKEYTNIFLKFGSGYVSGWGRVFHKGRSALVLQYLRVPLVDRATCLRSTKFTIYNNMFCAGFHEGGRDSCQGDSGGPHVTEVEGTSFLTGIISWGEECAMKGKYGIYTKVSRYVNWIKEKTKLT
For the protein B8, in data set [1], the K0.5-mut/K0.5-wt turned out to be 1.4. Moreover, in the data set with Factor X, P00742, the “% of WT kcat/KM” value was determined as 118%, the kcat amounted to 4.3 s⁻¹ and the kcat/KM was determined as 5.3e+07 M⁻¹ s⁻¹. Besides, in the data set with Factor X (FX), P00742, the KM was 0.0792 µM and the kcat of FX activation by FIXa (Xase complex with FVIIIa, PC/PS vesicles, Ca2+) came out at 4.3 s⁻¹. The K0.5-mut/K0.5-wt in data set [2] was 1.4.

B9: FIXa-Y155F/N260S/R318Y/R338E/R403E/E410N (protein)
chain 1: YNSGKLEEFVQGNLERECMEEKCSFEEAREVFENTERTTEFWKQYVDGDQCESNPCLNGGSCKDDINSYECWCPFGFEGKNCELDVTCNIKNGRCEQFCKNSADNKVVCSCTEGYRLAENQKSCEPAVPFPCGRVSVSQTSKLTR
chain 2: VVGGEDAKPGQFPWQVVLNGKVDAFCGGSIVNEKWIVTAAHCVETGVKITVVAGEHNIEETEHTEQKRNVIRIIPHHNYSAAINKYNHDIALLELDEPLVLNSYVTPICIADKEYTNIFLKFGSGYVSGWGRVFHKGYSALVLQYLRVPLVDRATCLESTKFTIYNNMFCAGFHEGGRDSCQGDSGGPHVTEVEGTSFLTGIISWGEECAMKGKYGIYTKVSEYVNWIKNKTKLT
As to B9, the K0.5-mut/K0.5-wt in data set [1] was 501. In the data set with Factor X, P00742, the “% of WT kcat/KM” value turned out to be 156%, the kcat was 5.8 s⁻¹ and the kcat/KM came out at 7e+07 M⁻¹ s⁻¹. Also, in the data set with Factor X (FX), P00742, the KM worked out at 0.0839 µM and the kcat of FX activation by FIXa (Xase complex with FVIIIa, PC/PS vesicles, Ca2+) amounted to 5.8 s⁻¹. In data set [2], the K0.5-mut/K0.5-wt stood at 501.
